The record followed here is CN114106182A (ZHONGSHAN KANGFARE BIOLOGICAL MEDICINE CO LTD, dated 2022).

Test [1] deals with T1, human TIGIT-mFc (human; mouse, UniProt Q495A1 22-141, limits assumed).
T1 construct: Made in house (Akeso, lot 20171110); also called 人TIGIT-mFc; not shown: Fc fragment of mouse IgG (mFc)
T1 sequence (looked up): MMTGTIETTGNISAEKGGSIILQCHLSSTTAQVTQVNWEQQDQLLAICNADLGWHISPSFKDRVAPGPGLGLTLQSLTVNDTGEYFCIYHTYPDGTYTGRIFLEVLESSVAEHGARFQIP
As to the kind of experiment: indirect ELISA, TIGIT-mFc captured by goat anti-mouse IgG Fc (Table 1 experiment).

Test [2] has as its target T1, human TIGIT-mFc. Nature of the test: competition ELISA on coated TIGIT-mFc; competitor CD155-hFc-Biotin (Table 3 experiment). Background: ELISA stands for enzyme-linked immunosorbent assay.
Test [3] has as its target T1, human TIGIT-mFc. As to the kind of experiment: BLI (Fortebio), antibody on AHC sensor, TIGIT-mFc 0.62-50 nM, 1:1 fit, 37 degrees. (In general: BLI is a label-free optical method that tracks binding on a fibre tip over time.)
Test [4] has as its target T2, TIGIT antigen on the surface of 293T-TIGIT cells (human, UniProt Q495A1 22-244).
T2 construct: whole, on cells; also called Jurkat-TIGIT (TIGITFL)
T2 sequence (looked up): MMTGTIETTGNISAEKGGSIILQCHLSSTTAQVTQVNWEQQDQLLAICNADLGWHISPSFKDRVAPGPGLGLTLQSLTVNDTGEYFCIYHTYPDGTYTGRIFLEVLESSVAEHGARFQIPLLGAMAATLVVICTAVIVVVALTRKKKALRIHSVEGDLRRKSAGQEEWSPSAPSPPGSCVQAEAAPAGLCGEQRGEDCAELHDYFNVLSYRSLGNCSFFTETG
Nature of the test: flow cytometry on 293T-TIGIT cells, FITC goat anti-human IgG.

The target in test [5] is T2, TIGIT antigen on the surface of …. Nature of the test: FACS competition on 293T-TIGIT cells; competitor CD112-mG1Fc (30 nM).
Test [6] shares this target. Nature of the test: FACS competition on 293T-TIGIT cells; competitor CD155-mG1Fc (10 nM).
The target of test [7] is T1, human TIGIT-mFc. Nature of the test: indirect ELISA, TIGIT-mFc captured by goat anti-mouse IgG Fc (Table 2 experiment).
In test [8] the target is T1, human TIGIT-mFc. Nature of the test: competition ELISA on coated TIGIT-mFc; competitor CD155-hFc-Biotin (Table 4 experiment).
Test [9] deals with T1, human TIGIT-mFc. Nature of the test: indirect ELISA screening of hybridomas on human TIGIT-mFc.

B1: BMS 22G2 (antibody, human IgG1, kappa, V domains shown)
VH: QVQLQESGPGLVKPSETLSLTCTVSGGSVSSGIYYWSWIRQPPGKGLEWIGYIYYSGSTNYNPSLKSRVTISVDTSKNQFSLKLSSVTAADTAVYYCARDYYVSGNYYNVDYYFFGVDVWGQGTTVTVSS
VL: EIVLTQSPATLSLSPGERATLSCRASQSVSSYLAWYQQKPGQAPRLLIYDASNRATGIPARFSGSGSGTDFTLTISSLEPEDFAVYYCQQRSNWPPLFTFGPGTKVDIKR
notes: Positive control anti-TIGIT antibody
Take B1: the EC50 in [1] came to 0.017 nM; in test [2] it was 0.513 nM.

B2: BMS 22G2(G1DM) (antibody, V domains shown)
VH: QVQLQESGPGLVKPSETLSLTCTVSGGSVSSGIYYWSWIRQPPGKGLEWIGYIYYSGSTNYNPSLKSRVTISVDTSKNQFSLKLSSVTAADTAVYYCARDYYVSGNYYNVDYYFFGVDVWGQGTTVTVSS
VL: EIVLTQSPATLSLSPGERATLSCRASQSVSSYLAWYQQKPGQAPRLLIYDASNRATGIPARFSGSGSGTDFTLTISSLEPEDFAVYYCQQRSNWPPLFTFGPGTKVDIK
In test [3], B2 returned a Kd of 0.628 nM. In other words, the sub-nanomolar range.

B3: RG6058(G1DM) (antibody, human IgG1, kappa, L234A L235A, V domains shown)
VH: EVQLQQSGPGLVKPSQTLSLTCAISGDSVSSNSAAWNWIRQSPSRGLEWLGKTYYRFKWYSDYAVSVKGRITINPDTSKNQFSLQLNSVTPEDTAVFYCTRESTTYDLLAGPFDYWGQGTLVTVSS
VL: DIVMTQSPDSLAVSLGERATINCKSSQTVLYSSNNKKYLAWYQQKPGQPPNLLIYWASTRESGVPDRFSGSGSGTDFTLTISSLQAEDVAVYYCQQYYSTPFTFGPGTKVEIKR
notes: Positive control anti-TIGIT antibody (Tiragolumab variable regions, G1DM constant region)
As to B3, the concentration for a half-maximal effect (EC50) in test [4] is 1.15 nM; in [5] it was 1.29 nM; in [6] it was 1.22 nM; in test [7], 0.017 nM; in [8], 0.425 nM. This molecule also returned a Kd in test [3] of 0.847 nM.

B4: 26B12 (antibody, V domains shown)
VH: EVQLQESGPGLVKPSQSLSLTCTVTGHSFTSDYAWNWIRQFPGNRLEWMGYISYSDSTNYNPSLKSRISITRDTSKNQFFLQMNSVTTEDTATYYCARLDYGNYGGAMDYWGQGTSVTVSS
VL: DIVLTQSHEFMSTSLRDRVSITCKSSQHVSTAVAWYQQKPGQSPKLLIYSASYRYTGVPDRFTGSGSGTDFTFTISSVKAEDLAVYYCQQHYITPWTFGGGTKLEIK
notes: Mouse monoclonal antibody from hybridoma; also called monoclonal antibody secreted by hybridoma LT019 (CCTCC NO: C2020208)
Consider B4, for which the binding result in [9] is listed as “binds”.

Broadly, the EC50 is the midpoint of the concentration-response curve. Lower therefore signals a more potent agent. In general, Kd refers to a measure of binding affinity in units of concentration. A higher Kd goes with lower affinity.
